The assay addresses His-tagged human recombinant full-length NEMO (human, UniProt Q9Y6K9 1-419). Kind of assay: SEC. On the technique in general: SEC sorts molecules by how far they enter the pores of the column.

Chain of His-tagged human recombinant full-length NEMO (Q9Y6K9 whole entry): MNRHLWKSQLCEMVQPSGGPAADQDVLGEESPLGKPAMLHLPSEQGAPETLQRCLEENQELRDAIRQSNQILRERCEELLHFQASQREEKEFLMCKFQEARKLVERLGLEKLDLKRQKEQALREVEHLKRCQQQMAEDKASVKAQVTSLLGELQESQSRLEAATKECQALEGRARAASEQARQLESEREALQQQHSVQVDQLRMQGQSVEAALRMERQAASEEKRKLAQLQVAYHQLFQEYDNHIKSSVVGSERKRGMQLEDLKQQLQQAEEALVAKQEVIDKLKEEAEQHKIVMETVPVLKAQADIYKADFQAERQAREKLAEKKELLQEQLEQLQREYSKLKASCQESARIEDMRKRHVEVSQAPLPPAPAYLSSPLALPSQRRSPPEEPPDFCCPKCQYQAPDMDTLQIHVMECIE

B1: recombinant FL-human IκBα (natural protein, UniProt P25963 1-317, looked up)
chain: MFQAAERPQEWAMEGPRDGLKKERLLDDRHDSGLDSMKDEEYEQMVKELQEIRLEPQEVPRGSEPWKQQLTEDGDSFLHLAIIHEEKALTMEVIRQVKGDLAFLNFQNNLQQTPLHLAVITNQPEIAEALLGAGCDPELRDFRGNTPLHLACEQGCLASVGVLTQSCTTPHLHSILKATNYNGHTCLHLASIHGYLGIVELLVSLGADVNAQEPCNGRTALHLAVDLQNPDLVSLLLKCGADVNRVTYQGYSPYQLTWGRPSTRIQQQLGQLTLENLQMLPESEDEESYDTESEFTEFTEDELPYDDCVFGGQRLTL
For the molecule B1, the binding result was “binds”.
